# In patent US20030162229A1:
# Where no end group is shown, it is not given here. The star is where a group is joined. Biotin = O=C1N[C@H]2[C@H](CS[C@H]2CCCCC(=O)*)N1
# Legend:
# [1] = target: human recombinant 30 kDa inhibin A (human) (UniProt P05111); assay: RIA, iodinated human inhibin A tracer vs human recombinant inhibin A
# [2] = target: antiserum As #128 (sheep polyclonal, raised to the alpha subunit of human inhibin, boosted with human recombinant 30-kDa inhibin); assay: RIA, competition with iodinated inhibin
# rabbit antiserum #1989 [3] = assay: RIA, competition with iodinated inhibin
# [4] = target: antiserum As #41 (sheep polyclonal, raised to the alpha subunit of human inhibin); assay: RIA, competition with iodinated inhibin
# [5] = target: antiserum As #128 (sheep polyclonal, raised to the alpha subunit of human inhibin, boosted with human recombinant 30-kDa inhibin); assay: inhibin IFMA; #5 on As #128, buffer on As #41
# [6] = target: antiserum As #128 (sheep polyclonal, raised to the alpha subunit of human inhibin, boosted with human recombinant 30-kDa inhibin); assay: two-site assay, peptide pre-incubated on As #128 coated plate, then hr-inhibin, biotinylated As #41
# [7] = target: antibody pair of the (alpha)C IFMA: As #128 as coating antibody and As #41 as label; assay: inhibin IFMA; #5 on As #128 and #5 on As #41
# [8] = target: antiserum As #41 (sheep polyclonal, raised to the alpha subunit of human inhibin); assay: inhibin IFMA; buffer on As #128, #5 on As #41
# [9] = target: antiserum As #41 (sheep polyclonal, raised to the alpha subunit of human inhibin); assay: two-site assay, biotinylated As #41 pre-incubated with peptide, inhibin on As #128 plate
# [10] = target: antiserum As #41 (sheep polyclonal, raised to the alpha subunit of human inhibin); assay: RIA, iodinated hr-inhibin tracer
# [11] = target: antiserum As #41 (sheep polyclonal, raised to the alpha subunit of human inhibin); assay: competitive 2-site assay, peptides incubated with iodinated As #41
# [12] = target: antiserum As #41 (sheep polyclonal, raised to the alpha subunit of human inhibin); assay: inhibin IFMA; buffer on As #128, #30 on As #41
# rabbit antiserum #1989 [13] = assay: RIA, iodinated hr-inhibin tracer
# [14] = target: antiserum As #128 (sheep polyclonal, raised to the alpha subunit of human inhibin, boosted with human recombinant 30-kDa inhibin); assay: inhibin IFMA; #20 on As #128, buffer on As #41
# [15] = target: antiserum As #128 (sheep polyclonal, raised to the alpha subunit of human inhibin, boosted with human recombinant 30-kDa inhibin); assay: RIA, iodinated hr-inhibin tracer
Molecule,ED50 [2],ED50 (rabbit antiserum #1989 [3]),ED50 [4],further results
"R1 monoclonal antibody (Groome), inhibin (alpha)C subunit",–,–,–,ED25 (affinity for inhibin) [1]: 1.6 nM
Biotin-SGSGGAPPTPAQPYSLLP [biotinylated peptide #22 (Set 1) of the human (alpha)C subunit],156 nM,> 2500 nM,5000 nM,–
Biotin-SGSGPNLSLPVPGAPPTP [biotinylated peptide #20 (Set 1) of the human (alpha)C subunit],20 nM,> 2500 nM,3600 nM,–
Biotin-SGSGERWIVYPPSFIFHY [biotinylated peptide #14 (Set 1) of the human (alpha)C subunit],–,> 2500 nM,–,–
H-CSKKGWSPSALRLLQRPPE [non-biotinylated peptide #5 with NH2-Cys-Ser-Lys-Lys-Gly amino terminal spacer],–,–,–,% suppression at 2ng inhibin [5]: 55%; % suppression in binding [6]: 65%; % suppression at 2ng inhibin [7]: 73%; % suppression at 2ng inhibin [8]: 67%; % inhibition [9]: 50%; ED50 [10]: 0.4 nM
Biotin-SGSGSFIFHYCHGGCGLH (cysteine pairing not given here) [biotinylated peptide #16 (Set 1) of the human (alpha)C subunit],–,> 2500 nM,–,–
Biotin-SGSGRTTSDGGYSFKYET [biotinylated peptide #30 (Set 1) of the human (alpha)C subunit],600 nM,< 10 nM,2500 nM,% contribution (competition with inhibin) [11]: 50%
Biotin-SGSGQPCCAALPGTMRPL (cysteine pairing not given here) [biotinylated peptide #26 (Set 1) of the human (alpha)C subunit],625 nM,> 2500 nM,1000 nM,–
Biotin-SGSGLQRPPEEPAAHANC [biotinylated peptide #7 (Set 1) of the human (alpha)C subunit],1600 nM,> 2500 nM,1250 nM,–
Biotin-SGSGALRLLQRPPEEPAA [biotinylated peptide #6 (Set 1) of the human (alpha)C subunit],1800 nM,> 2500 nM,26 nM,–
H-CSKKGRTTSDGGYSFKYET [non-biotinylated peptide #30 with NH2-Cys-Ser-Lys-Lys-Gly amino terminal spacer],–,–,–,% suppression at 2ng inhibin [12]: 28%; ED50 (rabbit antiserum #1989 [13]): 2500 nM
H-CSKKGPNLSLPVPGAPPTP [non-biotinylated peptide #20 with NH2-Cys-Ser-Lys-Lys-Gly amino terminal spacer],–,–,–,% suppression in binding [6]: 23%; % suppression at 2ng inhibin [14]: 13%; ED50 [15]: 150 nM
Biotin-SGSGLPGAQPCCAALPGT (cysteine pairing not given here) [biotinylated peptide #25 (Set 1) of the human (alpha)C subunit],2000 nM,> 2500 nM,5000 nM,–
Biotin-SGSGNCHRVALNISFQEL [biotinylated peptide #10 (Set 1) of the human (alpha)C subunit],–,> 2500 nM,–,–
human recombinant 30 kDa inhibin A (ligand) chain 1: STPLMSWPWSPSALRLLQRPPEEPAAHANCHRVALNISFQELGWERWIVYPPSFIFHYCHGGCGLHIPPNLSLPVPGAPPTPAQPYSLLPGAQPCCAALPGTMRPLHVRTTSDGGYSFKYETVPNLLTQHCACI chain 2: GLECDGKVNICCKKQFFVSFKDIGWNDWIIAPSGYHANYCEGECPSHIAGTSGSSLSFHSTVINHYRMRGHSPFANLKSCCVPTKLRPMSMLYYDDGQNIIKKDIQNMIVEECGCS,–,–,–,ED50 [15]: 2 nM; ED50 (rabbit antiserum #1989 [13]): 0.1 nM
Biotin-SGSGAAHANCHRVALNIS [biotinylated peptide #9 (Set 1) of the human (alpha)C subunit],–,> 2500 nM,–,–
Biotin-SGSGPEEPAAHANCHRVA [biotinylated peptide #8 (Set 1) of the human (alpha)C subunit],4800 nM,> 2500 nM,–,–
Biotin-SGSGDGGYSFKYETVPNL [biotinylated peptide #31 (Set 1) of the human (alpha)C subunit],1400 nM,> 2500 nM,2400 nM,–

Molecule,ED50 [2],ED50 (rabbit antiserum #1989 [3]),ED50 [4],further results
Biotin-SGSGHYCHGGCGLHIPPN (cysteine pairing not given here) [biotinylated peptide #17 (Set 1) of the human (alpha)C subunit],10000 nM,> 2500 nM,1050 nM,–
Biotin-SGSGVYPPSFIFHYCHGG [biotinylated peptide #15 (Set 1) of the human (alpha)C subunit],–,> 2500 nM,–,–
Biotin-SGSGTPAQPYSLLPGAQP [biotinylated peptide #23 (Set 1) of the human (alpha)C subunit],500 nM,> 2500 nM,6200 nM,–
Biotin-SGSGPLHVRTTSDGGYSF [biotinylated peptide #29 (Set 1) of the human (alpha)C subunit],156 nM,> 2500 nM,5000 nM,–
Biotin-SGSGPYSLLPGAQPCCAA (cysteine pairing not given here) [biotinylated peptide #24 (Set 1) of the human (alpha)C subunit],900 nM,> 2500 nM,6200 nM,–
Biotin-SGSGWSPSALRLLQRPPE [biotinylated peptide #5 (Set 1) of the human (alpha)C subunit],3800 nM,> 2500 nM,0.015 nM,% contribution (competition with inhibin) [11]: 50%
Biotin-SGSGGTMRPLHVRTTSDG [biotinylated peptide #28 (Set 1) of the human (alpha)C subunit],625 nM,> 2500 nM,4000 nM,–
Biotin-SGSGETVPNLLTQHCACI (cysteine pairing not given here) [biotinylated peptide #33 (Set 1) of the human (alpha)C subunit],2500 nM,> 2500 nM,4000 nM,–
Biotin-SGSGGGCGLHIPPNLSLP [biotinylated peptide #18 (Set 1) of the human (alpha)C subunit],60 nM,> 2500 nM,1050 nM,–
Biotin-SGSGAALPGTMRPLHVRT [biotinylated peptide #27 (Set 1) of the human (alpha)C subunit],2000 nM,> 2500 nM,5000 nM,–
Biotin-SGSGISFQELGWERWIVY [biotinylated peptide #12 (Set 1) of the human (alpha)C subunit],–,> 2500 nM,–,–
Biotin-SGSGLPVPGAPPTPAQPY [biotinylated peptide #21 (Set 1) of the human (alpha)C subunit],156 nM,> 2500 nM,1000 nM,–
Biotin-SGSGSFKYETVPNLLTQH [biotinylated peptide #32 (Set 1) of the human (alpha)C subunit],2500 nM,> 2500 nM,290 nM,–
Biotin-SGSGELGWERWIVYPPSF [biotinylated peptide #13 (Set 1) of the human (alpha)C subunit],–,> 2500 nM,–,–
Biotin-SGSGVALNISFQELGWER [biotinylated peptide #11 (Set 1) of the human (alpha)C subunit],–,> 2500 nM,–,–
Biotin-SGSGLHIPPNLSLPVPGA [biotinylated peptide #19 (Set 1) of the human (alpha)C subunit],< 10 nM,> 2500 nM,2100 nM,–
Biotin-SGSGSTPLMSWPWSPSAL [biotinylated peptide #3 (Set 1) of the human (alpha)C subunit],38000 nM,> 2500 nM,–,–
Biotin-SGSGMSWPWSPSALRLLQ [biotinylated peptide #4 (Set 1) of the human (alpha)C subunit],3800 nM,> 2500 nM,1300 nM,–
